The text below walks through data of patent publication US20260062464A1.

Numbering of substitutions follows the chain as printed.

Assay [1] concerns the target recombinant N2 neuraminidase of A/Wisconsin/67/2005 (H3N2) (Influenza A virus A/Wisconsin/67/2005 (H3N2)). In words: BLI, NA on biosensor, Fab in solution, 1:1 fit. Background: Biolayer interferometry detects binding as a change in optical thickness at a sensor tip.
Assay [2] deals with recombinant N2 neuraminidase of A/Moscow/10/1999 (H3N2) (Influenza A virus A/Moscow/10/1999 (H3N2)). The assay can be described thus: BLI, NA on biosensor, Fab in solution, 1:1 fit.
Assay [3] concerns the target recombinant N2 neuraminidase of A/Wisconsin/67/2005 (H3N2) (Influenza A virus A/Wisconsin/67/2005 (H3N2)). The assay can be described thus: ELISA on plate-coated recombinant NA, absorbance 450 nm.

B1: Fab of NDS.3 (Fab, V domains shown)
VH: EVQLVESGGGLVKPGGSLRLSCAASGFTFSDYSMTWIRQIPGKGLEWLSYTTSSGRPIFYADSVKGRFTMSRDNAKMSVYLQMNSLRDADSAVYYCARGDPHYIWGTYLDSWGPGTLVTVSS
VL: QSALTQPPSASGSPGQSVTISCTGTTSDFGDHNYVSWYQQRPGEAPKLIIYDVSKRPSGVPDRFSGSKSGNTASLTVSRLQADDEANYYCSSIEGSNTLLFGGGTKLTVL
In the case of B1, in assay [1], the Kd amounted to 60.9 nM, the koff amounted to 0.00527 s⁻¹ and the kon turned out to be 86500 M⁻¹ s⁻¹. In assay [2], the Kd stood at 18.9 nM, the koff turned out to be 0.000517 s⁻¹ and the kon worked out at 27400 M⁻¹ s⁻¹.

B2: NDS.5 monoclonal antibody (antibody, V domains shown)
VH: QLRLQESGPGLVKPSETLSLTCTVSGGSITSSPYYWGWIRQPPGKGLEWIGSIYYSGSTYYNPSLRSRVTISLDTSMNQFSLKLSSVTAADTAVYYCAEEYYDFWRTQDWGQGTLVTVSS
VL: EIVLTQSPGTLSLSPGERATISCRASQSVSGRNLAWYQQKPGQAPRLLIYAASNRATGIPDRFSGSGSGTDFTLTISRLEPEDFAVYYCQQYGTSKTFGQGTKVEIK
Regarding B2, the EC50 (read off the curve) in assay [3] stood at 0.05 µg/mL.

B3: Fab of NDS.1 (Fab, V domains shown)
VH: QVQLRQWGAGLLKPSETLSLTCDVYGGSFNFYFWTWIRQPPGKGLEWLGEITHSGSATYIPSLKSRVTLSVDTSKGQFSLKLTSVNVADTAVYYCAGLPIDYDTVHLGYYPMDVWGQGTPVTVSS
VL: DIQMTQSPSSLSASVGDRVTITCRASQGIRNYLAWYQQKPGKVPKLLIYGASTLQSGVPSRFSGSGSGTDFSLTISSLQPEDIATYFCQEYNNAPRTFGQGTKVEIK
As for B3, in assay [1], the Kd turned out to be 75.6 nM, the off-rate constant (koff) stood at 0.00431 s⁻¹ and the kon is 57000 M⁻¹ s⁻¹. Further, in assay [2], the Kd worked out at 0.217 nM, the koff was 1.16e-05 s⁻¹ and the kon stood at 53300 M⁻¹ s⁻¹.

B4: Fab of NDS.1.1 (Fab, V domains shown)
VH: QVQIQQWGAGLLKPSDTLSLTCSVYGGSFNFYYWTWVRQPPGKGLEWLAEINHSGSINYIPSLNSRVALSVDTSKGQFSLRLSSVTAADTAVYYCTGVPIDYESLHLGYYPMDVWGQGTPVIVSS
VL: B3 VL with R30S, Y36W, K42Q, G50A, E81D, I83V, T85I, F87Y, E90K, N93S
For B4, in assay [1], the Kd turned out to be 136 nM, the koff is 0.00565 s⁻¹ and the kon is 41500 M⁻¹ s⁻¹. For the same molecule, in assay [2], the dissociation constant (Kd) is 8.31 nM, the koff stood at 0.000187 s⁻¹ and the kon was determined as 22500 M⁻¹ s⁻¹.

B5: NDS.6 monoclonal antibody (antibody, V domains shown)
VH: QVQLVQSGPEVKKPGASVKVSCKASGYNFNRYGLTWVRQAPGQGLEWMGWISTYNSDTIYAREFRGRVTLTTDTSTRTAYMELRSLISADTAVYYCARDNVEEAFPISYYFDHWGQGTLVSVSS
VL: QSALTQPRSVSGSPGQSVTISCTGTSSDVGLYNYVSWYQHHPGKAPKFLIYDVTKRPSGVPDRFSGSKSGNTASLTISGLQAEDEADYYCCSYVGSYILVFGGGTKVTVL
On to B5, for which the EC50 (read off the curve) in assay [3] was determined as 0.2 µg/mL.

Usually Kd stands for the constant that tells how readily two partners part at equilibrium. As usually defined, the koff is a measure of how fast the partners let go of each other. The term kon denotes a measure of how fast the partners come together. Usually EC50 (read off the curve) stands for the concentration at which the effect is half-maximal.
